{"source": "patent US11147834B2", "about": "(MiZ Company Limited, priority 2018, dated 2021)", "molecules": {"B1": {"name": "ranibizumab (antibody, chains of the INN, looked up, V domains shown)", "VH": "EVQLVESGGGLVQPGGSLRLSCAASGYDFTHYGMNWVRQAPGKGLEWVGWINTYTGEPTYAADFKRRFTFSLDTSKSTAYLQMNSLRAEDTAVYYCAKYPYYYGTSHWYFDVWGQGTLVTVSS", "VL": "DIQLTQSPSSLSASVGDRVTITCSASQDISNYLNWYQQKPGKAPKVLIYFTSSLHSGVPSRFSGSGSGTDFTLTISSLQPEDFATYYCQQYSTVPWTFGQGTKVEIK", "modifications": "Fab", "notes": "an anti-VEGF drug, ranibizumab; Novartis Pharma K. K"}}, "key": {"[1]": {"conditions": "compared with H2; cited from earlier work"}, "[2]": {"test_system": "(wet) age-related macular degeneration", "assay": "Case of a patient with (wet) age-related macular degeneration: hydrogen aspiration and hydrogen water, Lucentis and laser therapy", "format": "in vivo, human", "procedure": "A patient felt itchiness on the left eye in September 2013, took their glasses off, and covered their left eye.\nLucentis (R) was injected in the vitreous body of the patient and the patient received laser therapy after 1 week. After additional 1 month, Lucentis (R) was re-injected.\nAfter 10 months, the injection was discontinued and only a test was continued. Thereafter, the patient visited the hospital once in three months and their pathological conditions were checked by a test.\nThen, the patient received the second laser therapy, and Lucentis (R) injection approximately once a month.\nThe doctor recommended that the patient receive another laser therapy if the result of injection in February was bad.\nAfter that, the patient received Lucentis (R) injection. One week after the injection, detailed fundus examination was conducted to check their pathological conditions.\nThen, the patient daily drank 500 ml/morning and 500 ml/night of the water for 1 month.\nWhen the patient received Lucentis (R) injection on Apr. 11, 2018, their pathological conditions were checked. […] However, after one week, the patient was re-examined."}}, "data": [{"molecule": "[2H][2H]", "note": "[D2, deuterium]", "values": [{"measurement": "superoxide-scavenging action", "setting": "[1]", "value": "stronger superoxide-scavenging action than H2"}]}, {"molecule": "[HH]", "note": "[hydrogen, molecular hydrogen]", "values": [{"measurement": "visual acuity of the eye with age-related macular degeneration", "setting": "[2]; after aspirating hydrogen and drinking hydrogen water, improved from 0.1", "value": 1.2}, {"measurement": "choroidal neovascularization (detailed fundus examination)", "setting": "[2]; gaseous hydrogen about 4% by volume aspirated about 2 hours x 3 (7-day interval), February 2018, then Lucentis injection, examined one week after the injection", "value": "degeneration"}]}, {"molecule": "B1", "values": [{"measurement": "effects of laser therapy and Lucentis injection", "setting": "[2]; during three years before initiation of hydrogen gas inhalation", "value": "no effects"}, {"measurement": "therapeutic effect", "setting": "[2]; first course: intravitreal injection, laser therapy after 1 week, re-injection after additional 1 month", "value": "therapeutic effect appeared"}, {"measurement": "test result after injection", "setting": "[2]; injection in January 2018", "value": "very bad"}, {"measurement": "treatment outcome", "setting": "[2]; same treatment repeated two years later after worsening", "value": "not good"}]}]}
